Assay results: paper PMC5507773, “Argonaute Utilization for miRNA Silencing Is Determined by Phosphorylation-Dependent Recruitment of LIM-Domain-Containing Proteins” (Cell Reports, 2017)

Target: T1, purified un-tagged AGO2 (hAGO2) (human, UniProt Q9UKV8 1-859)
T1 construct: AGO2, human, un-tagged; also called un-tagged crystallography grade hAGO2; source: purified, un-tagged, crystallography grade (De and Macrae, 2011)
Test: pull-down; MBP direct binding assay: purified un-tagged hAGO2 with MBP-VO, MBP-LIMD1 or MBP-LIMD1 140-166
Details: both partners purified

T1 sequence (Q9UKV8 whole entry): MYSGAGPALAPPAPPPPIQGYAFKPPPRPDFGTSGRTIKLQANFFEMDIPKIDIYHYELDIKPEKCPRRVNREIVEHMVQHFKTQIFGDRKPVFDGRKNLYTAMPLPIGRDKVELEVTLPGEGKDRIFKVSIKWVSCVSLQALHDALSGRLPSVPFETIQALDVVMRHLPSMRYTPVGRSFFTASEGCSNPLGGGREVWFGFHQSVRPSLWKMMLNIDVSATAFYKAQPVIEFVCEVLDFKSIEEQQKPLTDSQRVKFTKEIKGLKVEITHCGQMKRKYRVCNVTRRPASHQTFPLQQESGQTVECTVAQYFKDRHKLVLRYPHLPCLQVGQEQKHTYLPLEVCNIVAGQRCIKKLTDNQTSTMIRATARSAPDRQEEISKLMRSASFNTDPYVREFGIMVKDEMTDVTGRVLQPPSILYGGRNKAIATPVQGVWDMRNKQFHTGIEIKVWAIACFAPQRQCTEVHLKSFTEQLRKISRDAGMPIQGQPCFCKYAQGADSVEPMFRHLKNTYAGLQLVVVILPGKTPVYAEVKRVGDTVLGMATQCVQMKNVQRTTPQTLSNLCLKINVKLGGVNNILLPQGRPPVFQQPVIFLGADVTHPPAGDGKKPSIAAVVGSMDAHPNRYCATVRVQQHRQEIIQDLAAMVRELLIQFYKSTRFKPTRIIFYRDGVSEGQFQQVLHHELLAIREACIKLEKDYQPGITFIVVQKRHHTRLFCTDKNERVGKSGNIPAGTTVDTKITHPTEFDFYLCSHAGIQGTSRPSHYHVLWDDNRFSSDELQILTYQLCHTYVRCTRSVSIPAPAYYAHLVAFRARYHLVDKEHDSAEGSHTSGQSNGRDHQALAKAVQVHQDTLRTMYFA

binding result	Binder
binds	GTRHGSQDCGSRESLATSEMSAFHQPG (domain or fragment, UniProt Q9UGP4 140-166, looked up, source: recombinant, purified (details in Supplemental Experimental Procedures)) [MBP-LIMD1 140–166 (AB motif)]
binds	maltose binding protein (MBP)-tagged full-length LIMD1 (natural protein, LIMD1, full length; also called MBP-LIMD1; MBP-LIMD1 full-length; source: recombinant, purified (details in Supplemental Experimental Procedures)) not shown
